Results published in the supplement of paper PMC9170038.

Tested on: MS2 coat protein
Assay: apparent KD of MS2 coat protein; designed switch direction (-1 OFF switch, 1 ON switch): -1; higher = weaker reporter binding
In short: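 RNA switches sharing common flanks were transcribed by stalled E. coli RNA polymerase on Illumina chips. A doubling series of SNAP-549-labelled MS2 coat protein, from 0.7 or 1.5 nM to 3 µM, was applied in Tris-HCl pH 7.5 buffer with KCl, MgCl2, BSA, DTT, tRNA and Tween-20. Each step lasted 0.8–1.5 h at the bottom of the series and 10–20 min at the top. Normalised cluster fluorescence was curve-fitted, giving apparent KD as the per-design median over clusters.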

[1] = Eterna round: R95, input ligand: microRNA oligo, concentration not stated
[2] = Eterna round: R95, input ligand: FMN 200 uM
[3] = Eterna round: R95, input ligand: none
[4] = input ligand: microRNA oligo, concentration not stated

## AUACCACGAGGAUAUCGUCUAUUUCACAUGAGGAUCACCCAUGUUAUCCUUGUUUCGUUUCGAGAAGGCGUGUUUU [JR_E5_Sub076] (puzzle: Exclusion 5)
[1]
  apparent KD of MS2 coat protein: 43.8 nM

## AUACUUGCGAAGGAUAUGUAUCAAAGGAACGAAACAGAAGGUUGAACAUGAGGAUCACCCAUGUGUUCCUCGGA [Eternabot (Original) Solution 40] (Eterna round: R97, puzzle: Exclusion 6)
Input ligand: FMN 200 uM
  apparent KD of MS2 coat protein: 272 nM
Input ligand: none
  apparent KD of MS2 coat protein: 235 nM

## AUAGUAGAAGUGAGGAUAUCGUAGAUUUUUUGAAACGAGAAGGCACAUGAGGAUCACCCAUGUAAGAUGGAGGU [JR_BMOE4_Sub052] (puzzle: Brourd's mod of Exclusion 4)
[2]
  apparent KD of MS2 coat protein: 236 nM
[1]
  apparent KD of MS2 coat protein: 219 nM
[3]
  apparent KD of MS2 coat protein: 319 nM

## AUAUAGAUAGUCAGGAUAUUCUAGUGAUAACAGUAGGAGAAGGGACAUGAGGAUCACCCAUGUAGAUAGUGCAC [Brourd's EX4 #15] (Eterna round: R97, puzzle: Brourd's mod of Exclusion 4)
Input ligand: FMN 200 uM
  apparent KD of MS2 coat protein: 42.9 nM
Input ligand: none
  apparent KD of MS2 coat protein: 27 nM

## AUAUUAAUAUAGGAUAUCGAAUUUAUAAAUUAUCGAGAAGGAUAAACAUGAGGAUCACCCAUGUGGUAUCAUGG [Mat - Exclusion 6 - JL Mod - D42] (puzzle: Exclusion 6)
[2]
  apparent KD of MS2 coat protein: 239 nM
[1]
  apparent KD of MS2 coat protein: 222 nM
[3]
  apparent KD of MS2 coat protein: 346 nM

## AUAUUGUGAGGAUAUGAACUUAGUAACGAAAGAUACUAAGUUCAGAAGGCACAUGAGGAUCACCCAUGUUUCUC [Long static hairpin v11] (Eterna round: R97, puzzle: Exclusion 4)
Input ligand: FMN 200 uM
  apparent KD of MS2 coat protein: 596 nM
Input ligand: none
  apparent KD of MS2 coat protein: 68.1 nM

## AUAUUGUGAGGAUAUGAACUUAGUAUCGAAAGAAACUAAGUUCAGAAGGCACAUGAGGAUCACCCAUGUUUCUC [Long static hairpin v10] (Eterna round: R97, puzzle: Exclusion 4)
Input ligand: FMN 200 uM
  apparent KD of MS2 coat protein: 566 nM
Input ligand: none
  apparent KD of MS2 coat protein: 63.2 nM

## AUAUUUAAUGAGGAUAUCGUUGUAGGUAUAUAGCGAGAAGGCAUUACAUGAGGAUCACCCAUGUAGUGUGGGUU [JR_Ex6_Sub021] (Eterna round: R97, puzzle: Exclusion 6)
Input ligand: FMN 200 uM
  apparent KD of MS2 coat protein: 78.7 nM
Input ligand: none
  apparent KD of MS2 coat protein: 23.7 nM

## AUCAGCUCGUCAGGAUAUAUAUACAUGAGGAUCACCCAUGUAAGAUCAGGCUUCGGCCAAUGUAUAUAGAAGGGACGAGCUGAU [ENG2/11-B3] (Eterna round: R96, puzzle: Exclusion NG 2)
Input ligand: FMN 200 uM
  apparent KD of MS2 coat protein: 1550 nM
[4]
  apparent KD of MS2 coat protein: 371 nM
Input ligand: none
  apparent KD of MS2 coat protein: 771 nM

## AUCAGCUCGUCAGGAUAUAUUAACAUGAGGAUCACCCAUGUAAGAUCAGGCUUCGGCCAAUGUUAAUAGAAGGGACGAGCUGAU [ENG2/12-B2] (Eterna round: R96, puzzle: Exclusion NG 2)
Input ligand: FMN 200 uM
  apparent KD of MS2 coat protein: 710 nM
[4]
  apparent KD of MS2 coat protein: 29 nM
Input ligand: none
  apparent KD of MS2 coat protein: 133 nM

## AUCAGCUCGUGAGGAUAUACAUGAUAGAUCGAUUAAUUAAUUAAUUUAACAUGAGGAUCACCCAUGUAGAAGGCACGAGCUGAU [ENG2/1-A3] (Eterna round: R96, puzzle: Exclusion NG 2)
[4]
  apparent KD of MS2 coat protein: 30 nM

## AUCAUAUAACAAGCUUUUUACAUGAGGAUCACCCAUGUGGUUUUUAGUCUUAUCCCGGGCCCGAUAUCGGGCCCGGG [-33.4, -54.7, A 22%] (Eterna round: R97, puzzle: Sensor, turn-off variant 1)
Input ligand: FMN 200 uM
  apparent KD of MS2 coat protein: 22.8 nM
Input ligand: none
  apparent KD of MS2 coat protein: 24.2 nM

## AUCAUGUCAGGAUAUGUGAUAUGGAUCUUCGGAUCAAGUUCACAGAAGGGACAUGAGGAUCACCCAUGUCGAAC [Ex4-3: 30] (puzzle: Exclusion 4)
[1]
  apparent KD of MS2 coat protein: 40.1 nM

## AUCAUGUUAGGAUAUUACGACGCAGCGGGUAGCCCGUAAAGUAAGAAGGAACAUGAGGAUCACCCAUGUUCAAA [EX4 B.22] (Eterna round: R97, puzzle: Exclusion 4)
Input ligand: FMN 200 uM
  apparent KD of MS2 coat protein: 32.8 nM
Input ligand: none
  apparent KD of MS2 coat protein: 19.6 nM
